Drawing on patent CN111217911A (DONGGUAN PENGZHI BIO TECH CO LTD, dated 2020), this text covers Kd, koff and kon for one molecule.

For the assay, the target named is T1, 人胃蛋白酶原II HPGII (fitzgerald, 30R-AP039) (human, UniProt P20142 17-388).
T1 construct: Bought antigen; also called PGⅡ; PGC
T1 sequence (looked up): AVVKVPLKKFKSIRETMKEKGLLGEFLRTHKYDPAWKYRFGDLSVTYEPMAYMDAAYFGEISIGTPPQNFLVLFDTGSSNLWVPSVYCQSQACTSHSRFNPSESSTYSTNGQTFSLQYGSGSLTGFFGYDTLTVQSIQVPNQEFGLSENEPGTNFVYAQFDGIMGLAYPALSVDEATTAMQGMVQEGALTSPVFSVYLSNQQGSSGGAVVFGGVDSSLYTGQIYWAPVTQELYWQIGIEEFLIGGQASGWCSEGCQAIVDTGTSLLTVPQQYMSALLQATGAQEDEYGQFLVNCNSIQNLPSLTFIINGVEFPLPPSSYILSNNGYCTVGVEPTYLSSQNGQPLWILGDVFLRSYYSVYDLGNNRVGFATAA
Kind of assay: BLI, AMC sensor, antibody immobilised, HPGII in solution.

B1: Anti-HPG II 11C2 重组抗体 (WT) (antibody, V domains shown)
VH: QIQLVQSGPELKKPGETVKISCKASGYSFTQHGMNWVKQAPGKGLKWMGWINSFTAQPTFADDFRGRFAFSLETSASTAYLQINNLKNEDMATYFCARRGENYIYYYAMDYWGQGTSVTVSS
VL: DVVVTQTPLSLPVSFGDQVSISCRSNQSIAQSYGNTYLSWYLHKPGQSPQLLIYGLSQRFSGVPDRFSGSGSGTDFTLKISTIKPEDLGMYYCLNGSHQPWTFGGGTKLEIK
As a reminder, the Kd is the concentration at which binding is half-saturated. A word on the koff: it is the first-order rate constant of dissociation. The low end stands for slow dissociation, the high end for fast dissociation. What is called kon is the second-order rate constant of association. High values mean fast association, low ones slow association. With B1, binding was characterised by a dissociation constant (Kd) of 5.15 nM, the koff is 0.00181 s⁻¹ and the kon came to 351000 M⁻¹ s⁻¹.
